From patent US20180295858

Biological target: T1, H-AAPPA-NH2
T1 chain: AAPPA

B1: proline tolerant tripeptidyl peptidase TRI083 (protein)
chain: QEPSSCKGTLVFEGETFNVFQPDCLRTEYSVDGYTPSVKSGSRIGFGSFLNESASFADQALFEKHFNIPSQNFSVVLINGGTDLPQPPSDANDGEANLDAQTILTIAHPLPITEFITAGSPPYFPDPVEPAGTPNENEPYLQYYEFLLSKSNAEIPQVITNSYGDEEQTVPRSYAVRVCNLIGLLGLRGISVLHSSGDEGVGASCVATNSTTPQFNPIFPATCPYVTSVGGTVSFNPEVAWAGSSGGFSYYFSRPWYQQEAVGTYLEKYVSAETKKYYGPYVDFSGRGFPDVAAHSVSPDYPVFQGGELTPSGGTSAASPVVAAIVALLNDARLREGKPTLGFLNPLIYLHASKGFTDITSGQSEGCNGNNTQTGSPLPGAGFIAGAHWNATKGWDPTTGFGVPNLKKLLALVRF
  hydrolysis of synthetic substrate AAPPA, LC-MS with label free quantification: over time is able to degrade the peptide AAPPA (FIG. 5) and generate the product AAP (FIG. 6)
